Molecular target: EGFP, C-terminally biotinylated (Aequorea victoria GFP, engineered EGFP …, biotin on the C-terminal biotin acceptor peptide)
Assay: BLI

B1: GBP* (engineered GFP-Binding Protein, unconjugated) (VHH)
VHH: QVQLVESGGALVQPGGSLRLSCAASGFPVNRYSMRWYRQAPGREREWVAGMSSAGDRSSYEDSVRGRFTISRDDARNTVYLQMNSLRPEDTAVYYCNVNVGFEYWGQGTQVTVSS
**Q.** What does the source list for B1?
**A.** Kd: 0.75 nM; koff: 7.1e-05 s⁻¹; kon: 94000 M⁻¹ s⁻¹

Reference: article doi:10.1101/2025.10.08.681152 (bioRxiv, 2025)
